Some targets named below: BDKRB2 (UniProt P30411); CCR2 (UniProt P41597); CCR5 (UniProt P51681); CCR3 (UniProt P51677); CCR7 (UniProt P32248); CCR9 (UniProt P51686); CXCR2 (UniProt P25025); CALCR-RAMP2 (UniProt P30988); GPR1 (UniProt P46091); C5L2 (UniProt Q9P296); C5aR1 (UniProt P21730); CX3CR1 (UniProt P49238); GIPR (UniProt P48546); GLP2R (UniProt O95838); GRPR (UniProt P30550); KISS1R (UniProt Q969F8); BDKRB1 (UniProt P46663); MLNR (UniProt O43193); HCRTR2 (UniProt O43614); OXTR (UniProt P30559); NPY1R (UniProt P25929); PRLHR (UniProt P49683); SCTR (UniProt P47872); BRS3 (UniProt P32247); TRHR (UniProt P34981); VIPR1 (UniProt P32241).

Common to all, as to test: cell-based or functional assay
Another assay concerns the target T1, CCR1 (UniProt P32246).
T1 sequence (looked up): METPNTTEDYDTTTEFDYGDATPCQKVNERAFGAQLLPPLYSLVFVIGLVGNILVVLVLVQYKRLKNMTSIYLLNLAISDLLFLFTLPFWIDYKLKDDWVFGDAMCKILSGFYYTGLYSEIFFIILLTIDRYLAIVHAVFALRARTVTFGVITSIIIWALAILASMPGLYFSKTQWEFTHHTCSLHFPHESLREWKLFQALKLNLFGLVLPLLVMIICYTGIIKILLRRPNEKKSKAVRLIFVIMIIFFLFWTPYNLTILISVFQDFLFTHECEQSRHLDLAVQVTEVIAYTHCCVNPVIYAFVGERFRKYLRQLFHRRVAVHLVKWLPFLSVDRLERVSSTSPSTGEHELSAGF

The target of another assay is T2, CCR6 (UniProt P51684).
T2 sequence (looked up): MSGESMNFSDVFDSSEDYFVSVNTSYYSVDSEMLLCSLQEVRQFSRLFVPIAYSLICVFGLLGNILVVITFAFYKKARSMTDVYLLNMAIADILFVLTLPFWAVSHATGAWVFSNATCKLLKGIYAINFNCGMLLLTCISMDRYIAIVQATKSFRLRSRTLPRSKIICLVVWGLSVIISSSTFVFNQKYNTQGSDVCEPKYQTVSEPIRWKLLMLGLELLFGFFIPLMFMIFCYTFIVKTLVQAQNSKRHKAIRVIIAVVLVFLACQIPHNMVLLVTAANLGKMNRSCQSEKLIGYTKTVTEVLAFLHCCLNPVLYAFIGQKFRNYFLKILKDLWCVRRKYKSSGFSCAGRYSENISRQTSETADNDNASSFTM

Another assay deals with T3, CXCR1 (UniProt P25024).
T3 sequence (looked up): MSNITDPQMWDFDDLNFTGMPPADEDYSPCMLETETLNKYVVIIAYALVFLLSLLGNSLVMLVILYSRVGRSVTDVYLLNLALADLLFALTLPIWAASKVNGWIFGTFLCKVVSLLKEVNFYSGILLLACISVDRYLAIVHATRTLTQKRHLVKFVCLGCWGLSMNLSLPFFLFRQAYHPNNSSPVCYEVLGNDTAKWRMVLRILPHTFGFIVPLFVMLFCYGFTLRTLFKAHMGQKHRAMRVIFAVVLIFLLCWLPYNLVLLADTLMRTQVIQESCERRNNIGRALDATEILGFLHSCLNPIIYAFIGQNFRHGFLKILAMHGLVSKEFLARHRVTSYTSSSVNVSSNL

Another assay addresses T4, CALCR (UniProt P30988).
T4 sequence (looked up): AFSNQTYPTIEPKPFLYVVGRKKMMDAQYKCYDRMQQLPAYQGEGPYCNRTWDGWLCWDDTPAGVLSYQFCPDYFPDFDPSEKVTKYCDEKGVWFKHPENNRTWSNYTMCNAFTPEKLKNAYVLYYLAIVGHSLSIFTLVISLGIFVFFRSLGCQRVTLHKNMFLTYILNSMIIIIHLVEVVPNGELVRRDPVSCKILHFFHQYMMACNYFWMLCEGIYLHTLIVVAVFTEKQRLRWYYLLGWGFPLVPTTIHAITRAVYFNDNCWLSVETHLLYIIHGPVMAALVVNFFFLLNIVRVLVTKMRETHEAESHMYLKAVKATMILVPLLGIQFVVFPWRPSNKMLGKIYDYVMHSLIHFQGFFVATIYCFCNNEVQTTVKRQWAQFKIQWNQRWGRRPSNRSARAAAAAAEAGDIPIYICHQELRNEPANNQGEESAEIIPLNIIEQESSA

The target in another assay is T5, CALCR-RAMP3 (UniProt P30988).
T5 sequence (looked up) 1: T4 sequence (looked up)
T5 sequence (looked up) 2: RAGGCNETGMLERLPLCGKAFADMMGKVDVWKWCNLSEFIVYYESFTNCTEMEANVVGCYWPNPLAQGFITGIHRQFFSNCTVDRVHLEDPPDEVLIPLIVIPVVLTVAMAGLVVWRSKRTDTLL

In the next assay the target is T6, GALR2 (UniProt O43603).
T6 sequence (looked up): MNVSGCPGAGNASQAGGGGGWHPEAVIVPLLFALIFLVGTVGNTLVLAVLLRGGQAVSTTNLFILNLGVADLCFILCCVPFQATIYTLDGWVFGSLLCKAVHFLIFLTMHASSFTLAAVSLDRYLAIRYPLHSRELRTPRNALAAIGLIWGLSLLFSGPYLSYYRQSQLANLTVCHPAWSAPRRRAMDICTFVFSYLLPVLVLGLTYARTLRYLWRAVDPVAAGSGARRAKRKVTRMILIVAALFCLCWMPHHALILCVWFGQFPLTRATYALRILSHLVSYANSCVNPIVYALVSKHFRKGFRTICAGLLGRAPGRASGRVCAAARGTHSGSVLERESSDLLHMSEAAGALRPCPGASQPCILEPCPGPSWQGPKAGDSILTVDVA

The target in assay [1] is relaxin-3 receptor (RXFP3) (UniProt Q9NSD7).
Sequence of relaxin-3 receptor (RXFP3) (Q9NSD7 whole entry): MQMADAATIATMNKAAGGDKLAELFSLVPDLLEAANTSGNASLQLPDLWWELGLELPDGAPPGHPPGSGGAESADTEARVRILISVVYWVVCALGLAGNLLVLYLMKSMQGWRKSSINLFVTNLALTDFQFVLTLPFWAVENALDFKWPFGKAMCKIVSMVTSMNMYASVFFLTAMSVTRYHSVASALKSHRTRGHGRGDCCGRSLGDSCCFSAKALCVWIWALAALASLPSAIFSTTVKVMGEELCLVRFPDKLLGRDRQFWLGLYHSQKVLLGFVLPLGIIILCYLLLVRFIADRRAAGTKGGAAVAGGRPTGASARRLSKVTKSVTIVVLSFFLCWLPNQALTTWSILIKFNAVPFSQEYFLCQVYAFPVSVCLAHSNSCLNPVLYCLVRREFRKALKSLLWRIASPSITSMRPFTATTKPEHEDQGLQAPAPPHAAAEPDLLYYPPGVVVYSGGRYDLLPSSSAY

Sequence of Calcitonin (P01258 85-116 limits assumed): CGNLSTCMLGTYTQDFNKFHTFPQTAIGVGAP
Sequence of Complement C5a (P01031 678-751 limits assumed): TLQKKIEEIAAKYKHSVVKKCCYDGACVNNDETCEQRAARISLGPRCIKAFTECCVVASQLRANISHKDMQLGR
Sequence of CXCL8 (P10145 28-99 limits assumed): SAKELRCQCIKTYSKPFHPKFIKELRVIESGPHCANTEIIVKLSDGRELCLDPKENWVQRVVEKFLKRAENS
Sequence of CCL3 (P10147 24-92 limits assumed): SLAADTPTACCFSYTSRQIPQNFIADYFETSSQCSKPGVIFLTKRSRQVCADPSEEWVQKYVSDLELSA
Sequence of GLP2R (O95838 whole entry): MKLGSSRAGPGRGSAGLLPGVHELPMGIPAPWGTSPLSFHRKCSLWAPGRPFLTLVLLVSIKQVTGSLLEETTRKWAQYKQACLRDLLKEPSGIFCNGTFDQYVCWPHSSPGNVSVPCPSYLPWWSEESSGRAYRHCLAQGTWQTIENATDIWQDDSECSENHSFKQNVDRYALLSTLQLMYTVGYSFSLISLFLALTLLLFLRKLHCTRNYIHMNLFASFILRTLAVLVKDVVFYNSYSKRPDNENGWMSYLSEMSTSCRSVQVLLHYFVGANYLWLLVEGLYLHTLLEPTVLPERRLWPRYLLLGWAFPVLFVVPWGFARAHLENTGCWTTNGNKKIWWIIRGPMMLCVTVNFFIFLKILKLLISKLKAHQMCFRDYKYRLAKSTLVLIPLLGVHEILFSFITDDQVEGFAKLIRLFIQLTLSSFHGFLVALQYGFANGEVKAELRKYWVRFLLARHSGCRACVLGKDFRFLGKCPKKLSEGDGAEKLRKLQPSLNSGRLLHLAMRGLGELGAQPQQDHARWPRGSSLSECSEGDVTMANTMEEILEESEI
Sequence of CCR7 (P32248 25-378 limits assumed): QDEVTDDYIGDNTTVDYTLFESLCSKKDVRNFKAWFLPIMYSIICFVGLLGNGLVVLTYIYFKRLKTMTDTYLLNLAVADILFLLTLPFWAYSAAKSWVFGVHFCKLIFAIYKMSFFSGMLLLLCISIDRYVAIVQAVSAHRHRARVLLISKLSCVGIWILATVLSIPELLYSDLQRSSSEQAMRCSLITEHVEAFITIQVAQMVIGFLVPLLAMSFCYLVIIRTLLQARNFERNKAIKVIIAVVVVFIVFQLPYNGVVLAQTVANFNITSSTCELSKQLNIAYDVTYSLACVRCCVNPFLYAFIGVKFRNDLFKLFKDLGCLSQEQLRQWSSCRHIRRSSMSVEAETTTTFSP
Sequence of SCTR (P47872 23-440 limits assumed): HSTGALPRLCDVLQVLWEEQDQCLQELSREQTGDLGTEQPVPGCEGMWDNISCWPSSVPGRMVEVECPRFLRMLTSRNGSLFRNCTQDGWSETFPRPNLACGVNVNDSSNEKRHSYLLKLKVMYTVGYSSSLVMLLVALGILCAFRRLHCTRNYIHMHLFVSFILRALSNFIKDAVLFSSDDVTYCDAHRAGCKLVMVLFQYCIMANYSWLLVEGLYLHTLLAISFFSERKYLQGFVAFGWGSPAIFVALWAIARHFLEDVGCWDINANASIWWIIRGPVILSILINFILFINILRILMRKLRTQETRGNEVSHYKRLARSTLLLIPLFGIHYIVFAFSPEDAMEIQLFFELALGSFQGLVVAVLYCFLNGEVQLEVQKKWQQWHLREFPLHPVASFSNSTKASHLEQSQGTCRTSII
Sequence of NPY1R (P25929 whole entry): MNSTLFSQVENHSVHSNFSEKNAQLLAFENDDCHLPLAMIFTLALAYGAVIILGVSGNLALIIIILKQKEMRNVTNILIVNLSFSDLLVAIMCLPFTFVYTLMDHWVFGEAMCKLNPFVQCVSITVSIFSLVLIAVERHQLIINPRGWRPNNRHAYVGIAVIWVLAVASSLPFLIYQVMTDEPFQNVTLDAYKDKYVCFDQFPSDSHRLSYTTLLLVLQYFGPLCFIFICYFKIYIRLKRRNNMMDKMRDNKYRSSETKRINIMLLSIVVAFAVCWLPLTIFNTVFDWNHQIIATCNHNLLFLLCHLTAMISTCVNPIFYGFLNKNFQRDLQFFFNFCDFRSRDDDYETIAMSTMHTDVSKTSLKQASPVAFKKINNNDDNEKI
Sequence of CCR9 (P51686 whole entry): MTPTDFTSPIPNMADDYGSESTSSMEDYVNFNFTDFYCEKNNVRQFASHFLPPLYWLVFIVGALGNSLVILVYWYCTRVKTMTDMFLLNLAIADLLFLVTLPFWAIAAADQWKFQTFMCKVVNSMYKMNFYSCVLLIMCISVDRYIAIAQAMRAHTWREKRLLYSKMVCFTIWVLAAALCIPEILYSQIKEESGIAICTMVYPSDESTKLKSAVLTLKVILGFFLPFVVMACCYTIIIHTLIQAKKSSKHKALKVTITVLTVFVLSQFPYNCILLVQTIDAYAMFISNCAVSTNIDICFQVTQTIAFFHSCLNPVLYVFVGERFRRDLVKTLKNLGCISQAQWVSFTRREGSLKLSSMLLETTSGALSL
Sequence of CCR2 (P41597 other isoform, or with tags, fused parts or gaps limits assumed): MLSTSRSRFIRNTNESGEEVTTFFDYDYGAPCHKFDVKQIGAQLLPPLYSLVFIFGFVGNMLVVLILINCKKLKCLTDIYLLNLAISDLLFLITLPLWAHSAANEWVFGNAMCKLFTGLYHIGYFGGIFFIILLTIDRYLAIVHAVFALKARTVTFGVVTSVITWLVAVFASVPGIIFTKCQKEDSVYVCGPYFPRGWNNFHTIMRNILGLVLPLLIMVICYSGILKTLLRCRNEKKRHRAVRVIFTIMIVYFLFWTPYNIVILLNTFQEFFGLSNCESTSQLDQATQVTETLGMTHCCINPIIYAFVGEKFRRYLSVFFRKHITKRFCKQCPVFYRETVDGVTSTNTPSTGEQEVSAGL
Sequence of Fractalkine (P78423 25-100 limits assumed): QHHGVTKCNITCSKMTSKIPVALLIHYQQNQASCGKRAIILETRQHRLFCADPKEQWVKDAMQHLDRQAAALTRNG
Sequence of VIPR1 (P32241 31-457 limits assumed): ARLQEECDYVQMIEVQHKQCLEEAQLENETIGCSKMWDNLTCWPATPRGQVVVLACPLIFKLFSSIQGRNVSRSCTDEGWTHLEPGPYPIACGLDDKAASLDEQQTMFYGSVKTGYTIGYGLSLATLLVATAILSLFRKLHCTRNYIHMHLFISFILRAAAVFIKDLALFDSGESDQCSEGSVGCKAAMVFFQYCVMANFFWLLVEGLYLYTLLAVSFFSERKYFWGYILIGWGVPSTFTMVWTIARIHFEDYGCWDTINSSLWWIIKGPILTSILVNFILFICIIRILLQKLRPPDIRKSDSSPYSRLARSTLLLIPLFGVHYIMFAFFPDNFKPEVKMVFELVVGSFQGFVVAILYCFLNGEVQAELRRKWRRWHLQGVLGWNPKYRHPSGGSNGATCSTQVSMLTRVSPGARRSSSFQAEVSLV
Sequence of Galanin (P22466 33-62 limits assumed): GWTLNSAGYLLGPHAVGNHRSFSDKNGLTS
Sequence of MLNR (O43193 whole entry): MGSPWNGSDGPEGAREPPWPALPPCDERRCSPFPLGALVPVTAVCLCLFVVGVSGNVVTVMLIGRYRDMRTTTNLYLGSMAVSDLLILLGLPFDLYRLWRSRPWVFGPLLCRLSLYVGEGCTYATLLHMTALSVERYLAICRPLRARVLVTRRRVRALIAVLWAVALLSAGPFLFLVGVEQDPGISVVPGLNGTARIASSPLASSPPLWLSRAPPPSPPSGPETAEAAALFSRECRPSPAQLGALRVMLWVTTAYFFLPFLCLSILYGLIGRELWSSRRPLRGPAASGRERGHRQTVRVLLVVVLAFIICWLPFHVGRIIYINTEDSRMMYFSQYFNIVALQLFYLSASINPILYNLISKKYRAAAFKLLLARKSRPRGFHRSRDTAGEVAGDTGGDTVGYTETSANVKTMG
Sequence of CCR3 (P51677 whole entry): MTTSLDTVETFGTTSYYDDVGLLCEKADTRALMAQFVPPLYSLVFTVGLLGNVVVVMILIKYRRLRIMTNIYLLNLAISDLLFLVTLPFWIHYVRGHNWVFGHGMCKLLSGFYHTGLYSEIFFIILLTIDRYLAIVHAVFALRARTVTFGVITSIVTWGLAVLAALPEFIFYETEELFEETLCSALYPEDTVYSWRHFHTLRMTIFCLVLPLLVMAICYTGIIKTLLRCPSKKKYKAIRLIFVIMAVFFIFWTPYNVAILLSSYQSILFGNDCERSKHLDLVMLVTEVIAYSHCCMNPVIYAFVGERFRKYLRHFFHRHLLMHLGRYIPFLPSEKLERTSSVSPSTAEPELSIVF
Sequence of CCR5 (P51681 whole entry): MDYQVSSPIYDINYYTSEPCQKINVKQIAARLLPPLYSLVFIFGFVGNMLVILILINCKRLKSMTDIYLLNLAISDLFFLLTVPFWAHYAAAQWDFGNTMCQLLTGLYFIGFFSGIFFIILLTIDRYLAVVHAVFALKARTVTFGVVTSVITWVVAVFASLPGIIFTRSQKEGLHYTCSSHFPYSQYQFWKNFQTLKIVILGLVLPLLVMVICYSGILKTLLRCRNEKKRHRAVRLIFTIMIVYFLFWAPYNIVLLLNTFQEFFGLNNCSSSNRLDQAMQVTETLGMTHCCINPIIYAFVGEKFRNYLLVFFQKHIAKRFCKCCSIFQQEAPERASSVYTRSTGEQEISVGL

In the assay with BDKRB2, “Bradykinin (from UniProt P01042 381-389) (peptide)” had an EC50 (RC50), arrestin, agonist mode of 5.57 nM and an EC80, arrestin, agonist mode of 9.82 nM.

Turning to “CCL2 (from UniProt P13500 24-99) (ligand)”, in the assay with CCR2, the EC50 (RC50), arrestin, agonist mode was found to be 2.63 nM and the EC80, arrestin, agonist mode was found to be 6.92 nM.

For the substance “CCL3 (from UniProt P10147 24-92) (ligand)”, the values for the EC50 (RC50), arrestin, agonist mode with CCR5 and with CCR1 were 7.55 nM and 1.04 nM, respectively. The EC80, arrestin, agonist mode with CCR5 is 30.3 nM; with CCR1, 2.53 nM.

Take “CCL13 (from UniProt Q99616 24-98) (ligand)”: in the assay with CCR3, the EC50 (RC50), arrestin, agonist mode was 40.6 nM and the EC80, arrestin, agonist mode came to 140 nM.

In the assay with CCR7, “CCL19 (from UniProt Q99731 22-98) (ligand)” displayed an EC50 (RC50), arrestin, agonist mode of 5.65 nM and an EC80, arrestin, agonist mode of 19 nM.

In the assay with CCR6, “CCL20 (from UniProt P78556 27-96) (ligand)” registered an EC50 (RC50), arrestin, agonist mode of 2.95 nM and an EC80, arrestin, agonist mode of 14.3 nM.

In the assay with CCR9, “CCL25 (from UniProt O15444 24-150) (ligand)” showed an EC50 (RC50), arrestin, agonist mode of 173 nM and an EC80, arrestin, agonist mode of 370 nM.

Take “CXCL8 (from UniProt P10145 28-99) (ligand)”: the results for the EC50 (RC50), arrestin, agonist mode with CXCR2 and with CXCR1 were 0.304 nM and 2.8 nM, respectively. For the same substance, the EC80, arrestin, agonist mode was 0.968 nM in the assay with CXCR2 and 14.8 nM in the assay with CXCR1.

With “Calcitonin (from UniProt P01258 85-116) (peptide)”, the EC80, arrestin, agonist mode with CALCR was 72.9 nM; with CALCR-RAMP2, 33.7 nM; with CALCR-RAMP3, 384 nM.

For the substance “Chemerin (from UniProt Q99969 21-157) (ligand)”, in the assay with GPR1, the EC50 (RC50), arrestin, agonist mode was determined as 2.26 nM and the EC80, arrestin, agonist mode is 4.67 nM.

On to “Complement C5a (from UniProt P01031 678-751) (ligand)”, for which, in the assay with C5L2, the EC50 (RC50), arrestin, agonist mode amounted to 1.57 nM and the EC80, arrestin, agonist mode amounted to 2.7 nM. In the assay with C5aR1, the EC50 (RC50), arrestin, agonist mode stood at 1.38 nM and the EC80, arrestin, agonist mode was 3.64 nM.

In the assay with CX3CR1, “Fractalkine (from UniProt P78423 25-100) (ligand)” displayed an EC50 (RC50), arrestin, agonist mode of 0.444 nM and an EC80, arrestin, agonist mode of 1.45 nM.

With “GIP (from UniProt P09681 52-93) (peptide)”, in the assay with GIPR, the EC50 (RC50), arrestin, agonist mode turned out to be 4.87 nM and the EC80, arrestin, agonist mode is 18.5 nM.

“GLP II (1-33) (from UniProt P01275 21-180) (peptide)”: in the assay with GLP2R, the EC50 (RC50), arrestin, agonist mode is 2.3 nM and the EC80, arrestin, agonist mode is 8.97 nM.

With “GRP (from UniProt P07492 24-50) (peptide)”, in the assay with GRPR, the EC50 (RC50), arrestin, agonist mode turned out to be 1.62 nM and the EC80, arrestin, agonist mode stood at 5.92 nM.

In the assay with GALR2, “Galanin (from UniProt P22466 33-62) (peptide)” gave an EC50 (RC50), arrestin, agonist mode of 6.81 nM and an EC80, arrestin, agonist mode of 12.2 nM.

As for “Kisspeptin-10 (from UniProt Q15726 112-121) (peptide)”, in the assay with KISS1R, the EC50 (RC50), arrestin, agonist mode came out at 17.6 nM and the EC80, arrestin, agonist mode was found to be 37.6 nM.

In the case of LDA-Bradykinin (peptide), in the assay with BDKRB1, the EC50 (RC50), arrestin, agonist mode was determined as 3.65 nM and the EC80, arrestin, agonist mode was found to be 14 nM.

Turning to “Motilin (from UniProt P12872 26-47) (peptide)”, in the assay with MLNR, the EC50 (RC50), arrestin, agonist mode was found to be 1.59 nM and the EC80, arrestin, agonist mode was 5.63 nM.

In the assay with HCRTR2, “Orexin A (from UniProt O43612 34-66) (peptide)” came in with an EC50 (RC50), arrestin, agonist mode of 18.2 nM and an EC80, arrestin, agonist mode of 42.5 nM.

Take “Oxytocin (from UniProt P01178 20-28) (peptide)”: in the assay with OXTR, the EC50 (RC50), arrestin, agonist mode was 3.23 nM and the EC80, arrestin, agonist mode was found to be 7.19 nM.

Consider Peptide YY (from UniProt P10082 29-64), for which, in the assay with NPY1R, the EC50 (RC50), arrestin, agonist mode is 3.93 nM and the EC80, arrestin, agonist mode was 12.4 nM.

For the substance “PrRP-31 (from UniProt P81277 23-53) (peptide)”, in the assay with PRLHR, the EC80, arrestin, agonist mode was determined as 10.7 nM.

Regarding “Relaxin-3 (from UniProt Q8WXF3 26-142; Q8WXF3 26-142) (ligand)”, in assay [1], the EC50 (RC50), arrestin, agonist mode worked out at 11.9 nM and the EC80, arrestin, agonist mode was determined as 62.5 nM.

In the assay with SCTR, “Secretin (from UniProt P09683 28-54) (peptide)” gave an EC50 (RC50), arrestin, agonist mode of 1.74 nM and an EC80, arrestin, agonist mode of 9.2 nM.

Consider TAPN-Bombesin (peptide), for which, in the assay with BRS3, the EC50 (RC50), arrestin, agonist mode is 1.24 nM and the EC80, arrestin, agonist mode came out at 3.73 nM.

In the assay with TRHR, “TRH (from UniProt P20396 84-86) (peptide)” returned an EC50 (RC50), arrestin, agonist mode of 2.02 nM and an EC80, arrestin, agonist mode of 7.14 nM.

In the assay with VIPR1, “VIP (from UniProt P01282 125-152) (peptide)” gave an EC50 (RC50), arrestin, agonist mode of 1.73 nM and an EC80, arrestin, agonist mode of 3.69 nM.

The values are drawn from patent US20260184748A1, “COMPOSITIONS COMPRISING OCTADECANEUROPEPTIDES (ODN) AND SYNTHETIC DERIVATIVES THEREOF AND METHODS OF USE FOR MODULATION OF FOOD INTAKE, OBESITY, BODY WEIGHT, NAUSEA, AND EMESIS” (The Trustees of the University of Pennsylvania, priority 2022, published 2026).
